Kd data for two molecules are collected here from PMC11723922, “The TGF-β mimic TGM4 achieves cell specificity through combinatorial surface co-receptor binding” (EMBO Reports, 2024).

Assay [1] addresses T1, Mouse CD44 extracellular domain, recombinant (mouse, UniProt P15379 23-685).
T1 construct: CD44, mouse, extracellular domain; also called mCD44; murine CD44; source: expi293 cells, purified from the conditioned medium
T1 sequence (looked up): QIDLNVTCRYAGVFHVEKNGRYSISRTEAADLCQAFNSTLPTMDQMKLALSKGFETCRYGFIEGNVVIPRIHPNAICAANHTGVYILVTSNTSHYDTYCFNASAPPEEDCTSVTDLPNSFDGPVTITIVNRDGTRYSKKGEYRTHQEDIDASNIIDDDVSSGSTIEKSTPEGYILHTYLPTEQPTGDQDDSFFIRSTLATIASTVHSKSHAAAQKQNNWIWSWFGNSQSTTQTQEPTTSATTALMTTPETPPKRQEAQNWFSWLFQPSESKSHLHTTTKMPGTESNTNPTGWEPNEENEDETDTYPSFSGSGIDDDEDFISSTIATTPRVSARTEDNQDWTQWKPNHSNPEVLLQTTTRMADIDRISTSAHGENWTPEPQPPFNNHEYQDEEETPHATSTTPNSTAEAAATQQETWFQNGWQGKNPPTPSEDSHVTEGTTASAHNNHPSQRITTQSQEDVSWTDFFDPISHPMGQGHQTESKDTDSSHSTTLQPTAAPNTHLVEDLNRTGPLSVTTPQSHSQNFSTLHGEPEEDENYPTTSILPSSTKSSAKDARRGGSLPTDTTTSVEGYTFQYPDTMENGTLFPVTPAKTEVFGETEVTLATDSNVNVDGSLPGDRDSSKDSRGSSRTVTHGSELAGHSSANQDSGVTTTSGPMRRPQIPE
In words: ITC; TGM D4-5 fragments with mouse or human CD44 extracellular domain; 25 mM Na2HPO4, 50 mM NaCl, pH 6.0, 35 °C; two datasets globally fit (NITPIC, SEDPHAT). As to conditions: both partners purified. A general note: In ITC the heat of successive injections is recorded.

In assay [2] the target is T2, Human CD44 extracellular domain, recombinant (human, UniProt P16070 21-649).
T2 construct: CD44, human, extracellular domain; also called hCD44; source: expi293 cells, purified from the conditioned medium
Described as above. The settings on record: both partners purified.

T2 sequence (P16070 21-649): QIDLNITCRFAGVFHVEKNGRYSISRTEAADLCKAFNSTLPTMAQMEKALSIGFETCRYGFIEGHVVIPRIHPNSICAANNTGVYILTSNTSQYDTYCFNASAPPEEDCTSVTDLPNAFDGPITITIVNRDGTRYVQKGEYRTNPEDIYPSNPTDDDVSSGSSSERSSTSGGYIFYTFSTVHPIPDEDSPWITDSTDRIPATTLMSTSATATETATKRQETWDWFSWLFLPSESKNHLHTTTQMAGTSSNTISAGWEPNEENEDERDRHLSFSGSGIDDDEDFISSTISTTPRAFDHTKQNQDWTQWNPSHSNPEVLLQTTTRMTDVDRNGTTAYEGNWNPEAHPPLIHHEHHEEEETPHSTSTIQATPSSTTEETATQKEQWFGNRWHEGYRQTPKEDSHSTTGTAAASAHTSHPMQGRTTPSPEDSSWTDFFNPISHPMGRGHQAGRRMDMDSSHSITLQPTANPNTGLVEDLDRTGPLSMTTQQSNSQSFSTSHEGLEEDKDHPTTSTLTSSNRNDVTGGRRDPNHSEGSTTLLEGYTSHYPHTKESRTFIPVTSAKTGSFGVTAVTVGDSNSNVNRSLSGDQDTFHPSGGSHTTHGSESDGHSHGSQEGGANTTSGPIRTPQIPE

B1: TGM1 D4-5, recombinant (domain or fragment)
chain: RCKPLEANESVHYEYFTMTNETDKKKGPPAKVGKSGKYPEHTCVKKVCSKWPYTCSTGGPIFGECIGATWNFTALMECINARGCSSDDLFDKLGFEKVIVRKGEGSDSYKDDFARFYATGSKVIAECGGKTVRLECSNGEWHEPGTKTVHRCTKDGIRTL
A word on the Kd: it is the equilibrium constant for the complex coming apart. For B1, the dissociation constant (Kd) in assay [1] is 30 nM; in assay [2], 122 nM.

B2: TGM4 D4-5, recombinant (domain or fragment)
chain: RCKPLETNVSVHYEYFTMTNETGRKEGTPAEVDKGGKYPQHTCVRKFCDKSPYTCSVKGPIFGECLDGQWNFTALDECLNARGCNSDDLFDKLGFEGVMVREEEGSDSYKDDFVRFYATGSKVNAECKGKTVQLECSDGEWHDPGTKTVHRCTKEGIRAL
modifications: biotinylated in the streptavidin pull-downs; Alexa Fluor 488 label in flow cytometry; unlabelled in ITC and as competitor
On to B2, for which the Kd in assay [1] was found to be 20 nM; in assay [2] it was 78 nM.
